# Experimental data reported in publication PMC8372624.
# B1: recombinant full-length 14-3-3σ (1–248) (natural protein)
# chain: MERASLIQKAKLAEQAERYEDMAAFMKGAVEKGEELSCEERNLLSVAYKNVVGGQRAAWRVLSSIEQKSNEEGSEEKGPEVREYREKVETELQGVCDTVLGLLDSHLIKEAGDAESRVFYLKMKGDYYRYLAEVATGDDKKRIIDSARSAYQEAMDISKKEMPPTNPIRLGLALNFSVFHYEIANSPEEAISLAKTTFDEAMADLHTLSEDSYKDSTLIMQLLRDNLTLWTADNAGEEGGEAPQEPQS
# Target: fluorescently labeled non-covalent analog of peptide 5 with a non-nucleophilic acetate group on position 133 (UniProt P46937)
# Assay: fluorescence polarisation
# Sequence of UniProt P46937 (P46937 whole entry, looked up, tested part not stated): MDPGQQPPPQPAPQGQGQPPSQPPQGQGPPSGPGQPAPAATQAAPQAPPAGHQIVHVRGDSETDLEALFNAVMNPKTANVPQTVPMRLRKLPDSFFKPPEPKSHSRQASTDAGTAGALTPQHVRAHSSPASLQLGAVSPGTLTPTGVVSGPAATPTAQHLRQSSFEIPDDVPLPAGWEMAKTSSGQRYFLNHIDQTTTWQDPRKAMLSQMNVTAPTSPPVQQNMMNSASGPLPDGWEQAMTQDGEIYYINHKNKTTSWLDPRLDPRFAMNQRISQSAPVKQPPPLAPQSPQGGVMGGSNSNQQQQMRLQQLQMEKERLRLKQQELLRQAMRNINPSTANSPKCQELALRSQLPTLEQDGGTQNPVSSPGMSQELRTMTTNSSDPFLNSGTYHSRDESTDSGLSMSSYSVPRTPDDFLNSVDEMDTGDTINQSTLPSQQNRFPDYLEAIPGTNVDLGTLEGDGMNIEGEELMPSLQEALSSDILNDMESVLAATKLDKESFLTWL
binder,measurement,value
B1,Kd,106 nM
